B1: FAM46C (parent)
chain: FDHLQNRLIATKNPEEIRGGGLLK
B2: TPPP (parent)
chain: LCKDCQVIDGRNVTVTDVDIVFSK

Variants of: B1
Test: protein stability index of a GFP-peptide fusion (GPS, HEK-293T) (PSI 1-6); higher = more stable
Details: c terminus: a fixed tail appended
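Also: lentivirally expressed fusions sorted by FACS into six bins by GFP to DsRed ratio, PSI derived from sequencing read proportions per bin multiplied by bin number.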

Protein stability index: each site, then its substitutions
G21: E 3.93
G19: T 4.01
A10: D 4.49
F1: S 4.09; L 4.51
D2: P 4.23
L4: Y 3.85
E16: V 3.61; D 4.13
E15: G 2.99
N13: H 2.77
Q5: E 3.82

Variants of: B2
Test: as above
Details: c terminus: a fixed tail appended

Protein stability index: each site, then its substitutions
V18: E 3.52; Q 3.16; G 3.11; N 3.79; H 2.91; F 2.54; M 1.92; D 3.58; T 3.69; W 2.23; I 2.44; C 2.48; A 2.9; S 3.12; Y 2.6; R 3.06; K 2.77; L 2.4; P 2.73
S23: M 1.84; K 3.58; D 2.81; P 2.98; T 2.23; Q 2.6; H 3.26; N 2.75; L 1.82; I 2.1; Y 1.72; W 2.31; A 2.55; G 3.13; F 1.58; E 3.28; C 3.21; R 2.35
V15: C 2.62; N 2.95; Q 2.92; G 2.65; D 3.04; I 2.02; L 2.28; P 4.11; S 2.48; T 2.96; F 2.54; R 3.44; K 2.89; M 1.97; W 2.22; E 3.64; A 2.6; Y 2.01; H 2.92
D19: L 2.26; T 1.42; A 2.77; K 1.39; I 2.09; W 2.96; N 2.13; G 2.08; Q 1.65; H 2.97; C 2.4; V 1.95; R 1.36; M 2.28; P 2.56; Y 1.47; E 1.79; S 2.39; F 2.45
R11: P 2.57; A 2.54; D 3.54; H 2.15; S 2.58; E 2.9; G 2.56; V 2.05; W 1.78; K 2.71; I 1.68; F 1.91; N 2.85; L 1.68; T 2.35; M 2.16; Q 2.35; C 2.35; Y 1.55
K24: L 2.99; D 2.77; E 3.39; G 2.55; A 2.24; T 1.97; R 2.39; Q 2.35; W 2.25; Y 2.06; P 2.62; N 3.05; S 2.44; C 2.02; H 2.48
D9: W 1.84; G 2.1; A 1.96; R 2.53; K 2.48; T 2.99; M 2.19; H 2.07; I 1.66; Y 2.27; F 1.9; L 2.48; C 2.05; N 2; P 2.65; S 2.45; E 2.66; Q 2.76; V 1.21
V7: T 2.87; S 3.05; P 2.96; R 2.8; L 2.2; Y 1.53; Q 2.46; N 2.61; W 3.61; M 2.31
G10: D 3.35; Q 2.47; N 2.39; R 2.51; C 2.14; H 2.8; V 2.34; S 2.74; F 1.77; W 2.33; A 2.31; K 2.88; E 2.55; T 2.52; P 2.63; L 1.61; M 1.54; Y 1.99; I 1.3
V13: P 3.08; N 2.6; K 2.36; G 2.79; D 3.04; H 2.32; E 3.59; R 3.03; W 3.13; Y 2.37; L 2.48; Q 2.49; M 2.54; A 2.75; C 2.16; F 2.08; T 2.38; I 2.31; S 3.12
D17: P 2.21; R 2.92; H 2.48; A 2.33; M 2.29; G 2.14; Q 1.77; I 3.91; V 2.65; N 1.45; L 3.14; S 1.28; K 1.77; Y 2.97; W 2.1; T 1.69; E 2.07
T14: W 2.52; Y 2.15; R 2.4; G 3.05; M 1.6; D 2.68; L 1.84; C 2.41; F 1.91; I 2.76; S 2.83; P 2.75; A 2.81; K 2.48; N 2.73; H 2.61; V 1.72; E 3.2; Q 2.7
T16: R 2.44; A 2.23; Q 2.54; H 2.44; M 1.48; P 2.23; N 2.59; Y 1.3; C 1.72; S 2.92; L 1.72; I 3.14; W 1.24; G 2.01; E 3.01; K 3.06; D 3.37
N12: F 2.48; E 3.88; A 2.57; H 2.65; R 2.23; I 1.53; C 2.17; P 2.4; M 1.73; Q 2.3; K 2.52; L 2.57; T 2.11; D 2.68; V 1.71; S 1.98; G 2.48; Y 2.66
F22: V 2.53; C 3.38; M 3.12; H 4.43; D 3.96; I 2.09; W 2.3; A 2.5; Q 3.59; N 3.66; P 3.47; L 2.08; E 4.25; S 2.78; K 3.94; G 4.09; R 3.31; T 3.48; Y 2.84
I8: G 2.54; K 2.6; N 2.35; L 2.24; E 3.21; P 3.19; V 3.47; M 2.81; D 3.97; T 3.12; Y 2; S 2.79; R 3.2; W 1.83; Q 3.14; F 2.42; C 2.3; A 2.84; H 2.43
V21: G 3.28; F 1.8; H 2.65; R 2.46; E 3.88; N 3.45; W 2.07; M 1.96; S 3.34; D 4; Y 2.08; Q 2.15; T 3.2; I 1.87; C 2.53; A 3.47; L 2.54; K 3.22; P 2.66
I20: T 3.06; E 3.92; Y 2.63; P 3.14; F 2.38; R 3.22; W 1.98; D 3.46; Q 3.79; L 3.02; N 3.5; H 2.91; C 2.68; S 2.55; K 3.27; G 3.35; M 2.5; A 3.04

— the supplement of paper PMC10567573
